Results: patent US20080207517A1 (INSTITUT PASTEUR, published 2008)

Target: the molecule itself
Test: gel filtration (Superdex 75) at 10 µM, self-association
Description: The oligomeric states of peptides were determined by filtration as described in Traincard et al., 2003. In brief, 500 μl samples were loaded on a SUPERDEX™ 75 HR 10/30 column equilibrated in 50 mM Tris-HCl pH 8.0 containing 200 mM NaCl and 0.1 mM DDM, at a constant flow rate of 0.4 ml/min. The presence of the DDM detergent was added in the equilibrium buffer to minimize the adsorption in the column and to increase the peptide recovery. The column was calibrated in the same equilibrium buffer with blue dextran 2000 (void volume), dithioerythritol (total volume), bovine serum albumin (67 kDa, Rs=35.2 Å), ovalbumine (43 kDa, Rs=27.5 Å), chymotrypsinogen A (25 kDa, Rs=21.1 Å), ribonuclease A (13.7 kDa, Rs=16.4 Å), cytochrome C (12.4 kDa, Rs=17.7 Å) and aprotinin (6.5 KDa, Rs=13.5 Å).
The antennapedia sequence is a protein transduction domain (PTD) which adopts an alpha-helical amphiphatic structure (Prochiantz, 2000, Curr. Opin. Cell Biol.). […] To examine the effect of N-fusion of the antennapedia peptide on the oligomerization properties of the CC2 and the LZ peptides, the present inventors analyzed peptides containing or not containing the antennapedia sequence at their N-terminus by gel filtration. […]

B1: LZ (WT) (peptide)
peptide: Ac-LKAQADIYKADFQAERHAREKLVEKKEYLQEQLEQLQREFNKL-NH2
notes: Forms a dimer at 10 uM in gel filtration; also called LZ peptide; LZ wild type
- binding result: binds
